Source: FireProtDB (doi:10.1074/jbc.m110728200)

Details: Homo sapiens; pH 2.7; Thermal; DSC; Gly-HCl 0.05 M; whole UniProt chain shown

B1: Lysozyme C wild type, P61626 (protein)
chain: MKALIVLGLVLLSVTVQGKVFERCELARTLKRLGMDGYRGISLANWMCLAKWESGYNTRATNYNAGDRSTDYGIFQINSRYWCNDGKTPGAVNACHLSCSALLQDNIADAVACAKRVVRDPQGIRAWVAWRNRCQNRDVRQYVQGCGV
  Tm: 64.9 °C
  heat capacity change of unfolding: 1.58 kcal/mol/K
  unfolding enthalpy (calorimetric): 114 kcal/mol
